# In patent US20240277857A1 (NBIOS, published 2024):
# T1: coil C-mCherry-6xHis fusion protein (human)
# T1 construct: also called mCherry-C; wild-type mCherry-C; not shown: mCherry red fluorescent protein fused to the C-terminal of coil C
# T1 chain: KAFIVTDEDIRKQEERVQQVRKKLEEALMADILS
# T2: C_Ala27 (A27C) coil C mutant fused to mCherry (human)
# T2 construct: also called C half of Ala27-Ile8
# T2 chain: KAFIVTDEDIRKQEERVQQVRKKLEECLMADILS
# T3: C_Thr6 (T6C) coil C mutant fused to mCherry (human)
# T3 construct: also called C half of Thr6-Arg29
# T3 chain: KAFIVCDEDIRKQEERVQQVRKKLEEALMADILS
# B1: coil C′-GFP-6xHis fusion protein (other)
# chain: PEERERMIKQLKEELRLEEAKLVLLKKLRQSQIQKEATAQK
# notes: also called GFP-C′; wild-type GFP-C′; not shown: green fluorescent protein (GFP) fused to the C-terminal of coil C′
# B2: C′_Ile8 (I8C) coil C′ mutant fused to GFP (other, not shown: large carriers)
# chain: PEERERMCKQLKEELRLEEAKLVLLKKLRQSQIQKEATAQK
# modifications: not fully specified
# notes: also called 18C; C′ half of Ala27-Ile8
# B3: C′_Arg29 (R29C) coil C′ mutant fused to GFP (other, not shown: large carriers)
# chain: PEERERMIKQLKEELRLEEAKLVLLKKLCQSQIQKEATAQK
# notes: also called C′ half of Thr6-Arg29
# How the values were obtained:
# [1] = molecular target: T1, coil C-mCherry-6xHis fusion protein; assay: ITC, C′-GFP injected into C-mCherry, PBS pH 7.5, 25 °C
# Description: ITC analysis was conducted using MicroCal Auto-iTC200 (Malvern Panalytical) at the Korea Basic Science Institute (Ochang, Korea). […] For titration, 2 μL of C′-GFP was injected to C-mCherry 19 times at 25° C. for 4 seconds, with 150-seconds intervals, and data were analyzed using the MicroCal Origin 7.0 software. N is the stoichiometric number, KD is the binding affinity, and AH and AS are changes in enthalpy and binding entropy, respectively.
# [2] = molecular target: T2, C_Ala27 (A27C) coil C mutant fused to …; assay: FRET between GFP and mCherry, equimolar mixture, 4 µM, plate reader
# Description: (§1) A sample of wild-type GFP alone or a mixture of C′-GFP/C-mCherry, Ala27-lle8 and Thr6-Arg29 in equimolar quantities was diluted appropriately with phosphate-buffered saline (PBS) to make a total volume of 200 μL and a concentration of 4 μM. The sample was transferred to a 96-well plate and the absorbance at 510 nm 488 nm and luminescence (fluorescence) of each well were measured with the Synergy H1 hybrid multi-mode microplate reader (BioTek). After calculating the luminescence (A) per unit absorbance of the wild-type GFP alone sample and the luminescence (B) per unit absorbance of each sample, fluorescence resonance energy transfer efficiency was calculated by the following equation.
# [3] = molecular target: T3, C_Thr6 (T6C) coil C mutant fused to …; assay: as above
# Description: as §1
binder,measurement,setting,value
B1,Kd,[1],10.7 nM
same,ΔH,[1],-2.6 kcal/mol
same,ΔS,[1],-52.4 cal/mol/deg
B2,"FRET efficiency, fold against wild-type (GFP-C′+mCherry-C)",[2],≥ 2 fold
B3,"FRET efficiency, fold against wild-type (GFP-C′+mCherry-C)",[3],≥ 2 fold
